Earlier results in article PMC4457300.
pKd: −log10 of the molar value.

Biological target: MLL MBM1 4-15 (Homo sapiens) (UniProt Q03164)

## menin (from UniProt O00255)
  pKd: 7.25
